± gives the standard deviation of the averaged measurements.
B1: library; a variant is named by its letters at N, in order (parent)
chain: GCUGUCACCGGUGCUUGGUACGUUAUAUUCAGCCGGUCUGAUGAGUCUNNNNNNAGACGAAACAGC

How the values were obtained:
(6R,S)-folinic acid [1] = variants of: B1; assay: normalized RNA/DNA level without ligand (relative to sTRSVctl = 100) (log10 (% of sTRSVctl)); HEK293T overexpressing SLC46A1; higher = less ribozyme self-cleavage, higher mRNA level; conditions: without (6R,S)-folinic acid; ligand present: no
In short: (§1)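 Only sequences with at least 100 DNA reads were analyzed, from HEK293T cells transfected with 4 µg per 6-well well of ribozyme switch library plasmids 72 h before RNA extraction with EDTA. Any ligand was added 1 h before transfection. RNA level was defined as RNA over DNA reads, normalized to a spiked-in non-cleaving sequence or to the top sequences, then scaled and log-transformed. The top set was 25 sequences, and the scaling was ×100 followed by log10.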

(6R,S)-folinic acid [2] = variants of: B1; assay: normalized RNA/DNA level with ligand (relative to sTRSVctl = 100) (log10 (% of sTRSVctl)); HEK293T overexpressing SLC46A1; ligand concentration (+) RNA-Seq: 6 mM; higher = less ribozyme self-cleavage, higher mRNA level; conditions: with (6R,S)-folinic acid; ligand present: yes
In short: as §1

Row | Variant | normalized RNA/DNA level without ligand (log10) ((6R,S)-folinic acid [1]) | normalized RNA/DNA level with ligand (log10) ((6R,S)-folinic acid [2])
1 | GAUAUU | 2.005 ± 0.0061 | 2.02 ± 0.041
2 | GAUAUC | 2.02 ± 0.018 | 2.03 ± 0.036
3 | UAUUUA | 1.98 ± 0.024 | 2.01 ± 0.021
4 | UCACUC | 2.07 ± 0.01 | 2.05 ± 0.026
5 | UCACUA | 1.9969 ± 0.0017 | 2.019 ± 0.0085
6 | UCACUU | 2.021 ± 0.0092 | 2.04 ± 0.018
7 | UCACUG | 1.906 ± 0.0057 | 2.015 ± 0.02
8 | CAUGAG | 1.942 ± 0.0092 | 2.006 ± 0.0049
9 | CAUGAC | 1.98 ± 0.024 | 2 ± 0.012
10 | CAUGAU | 1.97 ± 0.02 | 1.997 ± 0.012
11 | GAUGCU | 1.992 ± 0.0031 | 2 ± 0.039
12 | GAUGCC | 2.014 ± 0.0064 | 2.023 ± 0.013
13 | UAUUCG | 1.735 ± 0.0046 | 1.94 ± 0.063
14 | UAUUCC | 1.972 ± 0.0012 | 1.986 ± 0.0039
15 | UAUUCA | 2.019 ± 0.0067 | 2.05 ± 0.037
16 | UAUUCU | 1.99 ± 0.039 | 2.04 ± 0.048
17 | CCAAAU | 1.963 ± 0.013 | 2 ± 0.035
18 | CCAAAG | 1.899 ± 0.0025 | 1.99 ± 0.025
19 | CCAAAC | 2.017 ± 0.015 | 2.03 ± 0.044
20 | CCACAU | 1.961 ± 0.004 | 1.98 ± 0.072
21 | CCACAC | 1.99 ± 0.02 | 1.967 ± 0.0084
22 | CCACAG | 1.95 ± 0.026 | 2 ± 0.024
23 | ACAAGU | 2.022 ± 0.0081 | 2.02 ± 0.028
24 | ACAAGA | 1.974 ± 0.0046 | 2.02 ± 0.031

Row | Variant | normalized RNA/DNA level without ligand (log10) ((6R,S)-folinic acid [1]) | normalized RNA/DNA level with ligand (log10) ((6R,S)-folinic acid [2])
25 | ACAAGC | 2.033 ± 0.01 | 2.02 ± 0.04
26 | ACACAC | 2.019 ± 0.0045 | 2.01 ± 0.058
27 | ACACAA | 1.968 ± 0.019 | 1.98 ± 0.045
28 | ACACAG | 1.953 ± 0.0027 | 2.01 ± 0.048
29 | GAUCAC | 2.03 ± 0.031 | 2.034 ± 0.0087
30 | GAUCAA | 2.001 ± 0.0021 | 2 ± 0.027
31 | GAUCAU | 2.023 ± 0.008 | 2.02 ± 0.026
32 | GAUCAG | 2.03 ± 0.041 | 2.05 ± 0.028
33 | UAUCUG | 1.878 ± 0.017 | 2 ± 0.023
34 | UAUCUC | 2.053 ± 0.018 | 2.03 ± 0.027
35 | UAUCUA | 1.987 ± 0.0076 | 2.03 ± 0.028
36 | UAUCUU | 2.007 ± 0.005 | 2.05 ± 0.021
37 | UAUGGU | 1.8765 ± 0.0006 | 1.98 ± 0.026
38 | AAUCAC | 2.008 ± 0.0074 | 2 ± 0.024
39 | AAUCAU | 1.961 ± 0.0057 | 1.992 ± 0.011
40 | AAUCAA | 1.973 ± 0.014 | 1.9902 ± 0.00064
41 | CAUAUA | 1.954 ± 0.019 | 1.97 ± 0.036
42 | CAUGUA | 1.947 ± 0.0027 | 1.99 ± 0.047
43 | CAUGUC | 2.03 ± 0.027 | 1.997 ± 0.0052
44 | CAUGGA | 2.0099 ± 0.0018 | 2.04 ± 0.025
45 | CAUGGG | 1.91 ± 0.015 | 2.008 ± 0.013
46 | CAUGGU | 1.903 ± 0.019 | 1.95 ± 0.037
47 | CAUGGC | 2.04 ± 0.022 | 2.03 ± 0.03
48 | UCACCU | 2.051 ± 0.0042 | 2.06 ± 0.027

Row | Variant | normalized RNA/DNA level without ligand (log10) ((6R,S)-folinic acid [1]) | normalized RNA/DNA level with ligand (log10) ((6R,S)-folinic acid [2])
49 | UCACCC | 2.05 ± 0.025 | 2.04 ± 0.037
50 | UCACCA | 2.0085 ± 0.0017 | 2.006 ± 0.0035
51 | UAUAGU | 1.874 ± 0.014 | 1.97 ± 0.041
52 | UAUCAC | 1.978 ± 0.0043 | 1.99 ± 0.013
53 | UAUAUA | 1.944 ± 0.0099 | 2 ± 0.034
54 | UAUAUU | 1.9864 ± 0.0015 | 2.01 ± 0.042
55 | UAUAUC | 2.027 ± 0.0026 | 2.01 ± 0.036
56 | UAUUGC | 1.941 ± 0.011 | 1.96 ± 0.034
57 | UAUUGU | 1.888 ± 0.012 | 2.005 ± 0.017
58 | GCACCC | 2.024 ± 0.004 | 2.012 ± 0.0027
59 | GCACCG | 2.055 ± 0.0053 | 2.05 ± 0.061
60 | GCACCU | 2.028 ± 0.015 | 2.01 ± 0.035
61 | GCACCA | 2.04 ± 0.022 | 2 ± 0.039
62 | CCACGC | 2.01 ± 0.022 | 2.01 ± 0.025
63 | CCACGG | 2.06 ± 0.029 | 2.04 ± 0.048
64 | CCACGA | 2.011 ± 0.0078 | 2.019 ± 0.009
65 | CAUUCA | 1.96 ± 0.02 | 1.9724 ± 0.001
66 | CAUUCU | 2.022 ± 0.0089 | 2.01 ± 0.056
67 | CAUUCG | 2.037 ± 0.0077 | 2 ± 0.032
68 | CAUUCC | 2.06 ± 0.033 | 2.02 ± 0.06
69 | CCAAGG | 2 ± 0.0033 | 1.991 ± 0.014
70 | CCAAGA | 2.0052 ± 0.00077 | 2.038 ± 0.0056
71 | CCAAGC | 2.098 ± 0.0093 | 2.0623 ± 0.001
72 | UAUCCA | 1.979 ± 0.0079 | 2.001 ± 0.0084

Row | Variant | normalized RNA/DNA level without ligand (log10) ((6R,S)-folinic acid [1]) | normalized RNA/DNA level with ligand (log10) ((6R,S)-folinic acid [2])
73 | UAUCCC | 2.047 ± 0.0027 | 2.01 ± 0.042
74 | UAUCCU | 2.009 ± 0.0051 | 2 ± 0.048
75 | UCAAGG | 1.96 ± 0.023 | 2 ± 0.033
76 | UCAAGU | 1.984 ± 0.0097 | 2.02 ± 0.045
77 | CAUCAG | 1.97 ± 0.039 | 1.97 ± 0.021
78 | CAUCAC | 2.03 ± 0.0083 | 2 ± 0.071
79 | CAUCAU | 2.02 ± 0.052 | 2 ± 0.072
80 | CAUCAA | 1.977 ± 0.0041 | 1.97 ± 0.021
81 | ACACUA | 2.017 ± 0.012 | 2.01 ± 0.043
82 | ACACUC | 2.05 ± 0.027 | 2.03 ± 0.031
83 | ACACUU | 1.996 ± 0.016 | 2.03 ± 0.027
84 | ACACUG | 1.968 ± 0.01 | 2.03 ± 0.044
85 | GCAGAA | 1.942 ± 0.0071 | 2.01 ± 0.044
86 | GAUUAC | 1.987 ± 0.014 | 2.017 ± 0.017
87 | UCAAAG | 1.817 ± 0.0038 | 1.98 ± 0.032
88 | UCAAAU | 1.96 ± 0.017 | 2.004 ± 0.017
89 | GAUUGG | 1.973 ± 0.017 | 2.028 ± 0.019
90 | GAUUGC | 1.974 ± 0.015 | 2 ± 0.036
91 | GCAAGC | 2.011 ± 0.0087 | 2.023 ± 0.014
92 | GCAAGU | 2.009 ± 0.012 | 2.023 ± 0.02
93 | CAUUGU | 2.012 ± 0.0069 | 2.02 ± 0.064
94 | CAUUGA | 2.019 ± 0.0027 | 2.01 ± 0.055
95 | CAUUGG | 1.955 ± 0.011 | 2.01 ± 0.026
96 | CAUUGC | 2.021 ± 0.0021 | 1.99 ± 0.019

Row | Variant | normalized RNA/DNA level without ligand (log10) ((6R,S)-folinic acid [1]) | normalized RNA/DNA level with ligand (log10) ((6R,S)-folinic acid [2])
97 | GAUCUA | 2.03 ± 0.024 | 2.027 ± 0.02
98 | GAUCUC | 2.0583 ± 0.00073 | 1.99 ± 0.035
99 | GAUCUG | 2.008 ± 0.013 | 2.032 ± 0.0047
100 | GAUCUU | 2.031 ± 0.0082 | 2.02 ± 0.083
101 | CAUUAA | 1.953 ± 0.0081 | 1.976 ± 0.014
102 | CAUUAG | 1.94 ± 0.037 | 1.985 ± 0.0055
103 | AAUCUC | 2.068 ± 0.011 | 2.04 ± 0.034
104 | AAUCUG | 1.958 ± 0.0061 | 2.04 ± 0.048
105 | AAUUCC | 2.059 ± 0.018 | 2.036 ± 0.019
106 | AAUUCA | 1.9759 ± 0.00044 | 2 ± 0.041
107 | AAUUCU | 2.0312 ± 0.0016 | 2.03 ± 0.027
108 | AAUUCG | 1.974 ± 0.012 | 2.03 ± 0.038
109 | AAUCCG | 1.969 ± 0.014 | 2.02 ± 0.055
110 | AAUCCC | 2.023 ± 0.003 | 2 ± 0.043
111 | ACACCU | 2.0447 ± 0.0018 | 2.05 ± 0.048
112 | ACACCC | 2.041 ± 0.0034 | 1.97 ± 0.045
113 | CAUUUC | 2.036 ± 0.0064 | 2 ± 0.037
114 | CAUUUA | 1.97 ± 0.013 | 1.999 ± 0.013
115 | GCACAU | 1.991 ± 0.0072 | 2.01 ± 0.025
116 | GCACAG | 1.936 ± 0.0048 | 2 ± 0.024
